Earlier results, collected in publication PMC4117426.
Where two headings read alike, the source gives them in different places.

How the values were obtained:
[1] = molecular target: FtsZ tail peptide C-terminal tail (Escherichia coli) (UniProt P0A9A6)
[2] = molecular target: FtsZ tail peptide C-terminal tail (Escherichia coli) (UniProt P0A9A6); remark: listed apart in the source

Sequence of FtsA (P0ABH0 whole entry): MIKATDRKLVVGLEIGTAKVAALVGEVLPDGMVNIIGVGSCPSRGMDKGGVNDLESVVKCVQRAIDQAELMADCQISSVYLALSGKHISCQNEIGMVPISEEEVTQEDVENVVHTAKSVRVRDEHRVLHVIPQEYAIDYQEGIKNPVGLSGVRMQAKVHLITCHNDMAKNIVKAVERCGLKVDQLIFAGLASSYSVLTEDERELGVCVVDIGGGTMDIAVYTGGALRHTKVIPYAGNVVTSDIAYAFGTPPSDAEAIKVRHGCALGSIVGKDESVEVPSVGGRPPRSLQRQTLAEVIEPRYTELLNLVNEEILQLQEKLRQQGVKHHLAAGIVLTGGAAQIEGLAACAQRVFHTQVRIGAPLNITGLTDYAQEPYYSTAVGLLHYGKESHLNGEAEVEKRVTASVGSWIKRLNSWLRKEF

Row | Substance | Kd [1] [µM] | Kd [2] [µM]
1 | ZipA (from UniProt P77173) | 20 | 
2 | FtsA (from UniProt P0ABH0) |  | 50
